Measured values: US20150299797A1, “COMPOSITIONS AND METHODS RELATING TO BLOOD-BASED BIOMARKERS OF BREAST CANCER” (UNIVERSITY OF UTAH RESEARCH FOUNDATION, priority 2012, published 2015)
Entries after “also recorded” stand apart in the source; their conditions may differ.

Tested on: normal mammary epithelial cells from high-risk (HBC) women or control women
Experiment: Drug response assay (CellTiter-Glo cell viability, dose-response)
Format: cell-based, human
Details: HBC/high-risk vs control, viability after 96 hours, TRAIL p-value<0.001
Method: Normal mammary epithelial cells isolated from either high-risk women undergoing prophylactic mastectomy or control women with no family history of breast cancer undergoing breast-reduction surgery for non-cancer related health issues were isolated, and single-cell suspensions were generated. 1500 cells/well for each patient samples were plated in 40 microliters of MEBM basal media supplemented with a MEGM Bulletkit [Lonza] in half-well 96-well plates [Nunc] in triplicate for each drug dose. After 24 hours, TRAIL, Afatinib, Gefitinib, and EGF were added. The indicated doses were chosen within the average linear range of drug effect: TRAIL (0.1 ng/mL-5.0 ng/ml), Afatinib (10 nM-[…]), Gefitinib (0.001 mM-0.5 mM), EGF (5 ng/mL-500 ng/mL) [Millipore (TRAIL) and Selleckchem]. A BIOMEK 3000 (Beckman Coulter, Brea, Calif., USA) robot was used to seed the cells and dispense the drugs. After 96 hours, cell viability was quantified using the CellTiter-Glo Luminescent Cell Viability Assay [Promega]. The proportion of viable cells was calculated for each dosage by comparing against cell counts for non-treated cells. A summary value was calculated for each cell line as the slope of a linear-regression line fitted to the cell-count proportions.

B1: TRAIL: TNF-related apoptosis inducing ligand (TRAIL), from Millipore (protein, UniProt P50591 1-281, looked up)
Tumor necrosis factor ligand …: MAMMEVQGGPSLGQTCVLIVIFTVLLQSLCVAVTYVYFTNELKQMQDKYSKSGIACFLKEDDSYWDPNDEESMNSPCWQVKWQLRQLVRKMILRTSEETISTVQEKQQNISPLVRERGPQRVAAHITGTRGRSNTLSSPNSKNEKALGRKINSWESSRSGHSFLSNLHLRNGELVIHEKGFYYIYSQTYFRFQEEIKENTKNDKQMVQYIYKYTSYPDPILLMKSARNSCWSKDAEYGLYSIYQGGIFELKENDRIFVSVTNEHLIDMDHEASFFGAFLVG
response of primary breast cells of HBC women compared to controls (proportion of viable cells, slope of fitted dose-response): significantly increased response; also recorded: significantly more responsive
